From publication PMC9418484 (The Journal of Experimental Medicine, 2022)
Where two headings read alike, the source gives them in different places.

B1: AZ090 IgG (antibody, V domains shown)
VH: QVQLVQSGPEVKKPGTSVKVSCKASQFTFSISAVQWVRQARGQRLEWMGWIVVGSGNTDYAQRFQERVTISRDMSAGTVYMELRSLRSEDTAVYYCAAPYCNKTNCRDGFDMWGQGTMVTVSS
VL: EIVLTQSPGTLSLSPGERATLSCRASQSVSSSYLAWYQQKPGQAPRLLIYGASRRATGIPDRFSGSASGTDFILTISRLEPEDFAVYYCQQYRNSPWTFGQGTKVEIK
B2: AZ229 (antibody, V domains shown)
VH: EVQLVESGGGLVQPGGSLRLSCAASGFTFSSDDMHWVRQATGKGLEWVSAIGTSGDTYYSESVKGRFTISRDNAKSSLYLQMNSLRAGDTAVYYCARGRVYDGPTSDRHYYYYVMDLWGHGTTVAVSS
VL: DIQMTQSPSSLSASVGDRVTITCRASQSINKYLNWYQQKPGKAPKLLIYAASSLQGGVPSRFSGSGSGTDFTLTITTLQPEDFATYYCQQSYSAPPWTFAQGTKVEIK
B3: C105 (antibody, V domains shown)
VH: QVQLVESGGGLIQPGGSLRLSCAASGFTVSSNYMSWVRQAPGKGLEWVSVIYSGGSTYYADSVKGRFTISRDNSKNTLYLQMNSLRAEDTAVYYCARGEGWELPYDYWGQGTLVTVSS
VL: QSALTQPPSASGSPGQSVTISCTGTSSDVGGYKYVSWYQQHPGKAPKLMIYEVSKRPSGVPDRFSGSKSGNTASLTVSGLQAEDEADYYCSSYEGSNNFVVFGGGTKLTVL

What was measured:
[1] = target: T1, SARS-CoV-2 Wuhan-Hu-1 receptor-binding domain (RBD), S protein residues 319-539 (SARS-CoV-2 Wuhan-Hu-1, UniProt P0DTC2); test: BLI; settings: both partners purified
[2] = target: T1, SARS-CoV-2 Wuhan-Hu-1 receptor-binding …

Row | Binder | binding result [1] | binding result [2]
1 | B1 | binds | 
2 | B2 |  | binds
3 | B3 | binds | 
